According to IntAct's records for PubMed 16339850:

B1: E3 ubiquitin-protein ligase COP1 (Arabidopsis thaliana (Mouse-ear cress)), P43254 (parent)
chain: MEEISTDPVVPAVKPDPRTSSVGEGANRHENDDGGSGGSEIGAPDLDKDLLCPICMQIIKDAFLTACGHSFCYMCIITHLRNKSDCPCCSQHLTNNQLYPNFLLDKLLKKTSARHVSKTASPLDQFREALQRGCDVSIKEVDNLLTLLAERKRKMEQEEAERNMQILLDFLHCLRKQKVDELNEVQTDLQYIKEDINAVERHRIDLYRARDRYSVKLRMLGDDPSTRNAWPHEKNQIGFNSNSLSIRGGNFVGNYQNKKVEGKAQGSSHGLPKKDALSGSDSQSLNQSTVSMARKKRIHAQFNDLQECYLQKRRQLADQPNSKQENDKSVVRREGYSNGLADFQSVLTTFTRYSRLRVIAEIRHGDIFHSANIVSSIEFDRDDELFATAGVSRCIKVFDFSSVVNEPADMQCPIVEMSTRSKLSCLSWNKHEKNHIASSDYEGIVTVWDVTTRQSLMEYEEHEKRAWSVDFSRTEPSMLVSGSDDCKVKVWCTRQEASVINIDMKANICCVKYNPGSSNYIAVGSADHHIHYYDLRNISQPLHVFSGHKKAVSYVKFLSNNELASASTDSTLRLWDVKDNLPVRTFRGHTNEKNFVGLTVNSEYLACGSETNEVYVYHKEITRPVTSHRFGSPDMDDAEEEAGSYFISAVCWKSDSPTMLTANSQGTIKVLVLAA
partner: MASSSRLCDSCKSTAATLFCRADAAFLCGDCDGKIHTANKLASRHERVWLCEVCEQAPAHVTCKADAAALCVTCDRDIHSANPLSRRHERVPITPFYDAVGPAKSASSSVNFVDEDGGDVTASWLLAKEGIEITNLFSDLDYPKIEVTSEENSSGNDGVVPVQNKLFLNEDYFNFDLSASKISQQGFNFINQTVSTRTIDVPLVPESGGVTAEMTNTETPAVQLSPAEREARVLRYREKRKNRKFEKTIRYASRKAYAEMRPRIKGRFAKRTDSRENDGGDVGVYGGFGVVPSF
B2: Zinc finger protein CONSTANS-LIKE 3 (Arabidopsis thaliana (Mouse-ear cress)), Q9SK53 (parent)
chain: B1 partner
partner: B1 chain

Variants of: B1
Settings: with col3_arath COL3, Q9SK53
G524E was tested, and the “effect of a mutation on the interaction” value was “disrupting interaction strength”.

Variants of: B2
Settings: with cop1_arath COP1, P43254
With MASSSRLCDSCKSTAATLFCRADAAFLCGDCDGKIHTANKLASRHERVWLCEVCEQAPAHVTCKADAAALCVTCDRDIHSANPLSRRHERVPITPFYDAVGPAKSASSSVNFVDEDGGDVTASWLLAKEGIEITNLFSDLDYPKIEVTSEENSSGNDGVVPVQNKLFLNEDYFNFDLSASKISQQGFNFINQTVSTRTIDVPLVPESGGVTAEMTNTETPAVQLSPAEREARVLRYREKRKNRKFEKTIRYASRKAYAEMRPRIKGRFAKRTDSRENDGGDVGVYGGFGVAASF [V291A;P292A] the “effect of a mutation on the interaction” value was “disrupting interaction”.
